Data published in patent CN110294802A (INST MILITARY MEDICINE ACADEMY MILITARY SCIENCES PLA, dated 2019).

Experiments:
[1] = target: HAdV7病毒原液 (human/CHN/GZ6965/2001); experiment: cell-based or functional assay
合成的口蹄疫病毒多肽抗原 = experiment: ELISA, antigen coated on plate, anti-human IgG-HRP detection

B1: 10G12抗体 (antibody, V domains shown)
VH: QVQLKQPGAELVRPGASVKLSCKASGYSFTNYWMHWMKQRPGQGLEWIGMIDPSDSETRLNQKFKDKATLTVDKSSSIAYMQLSSPTSEDSAVYYCARDRYDGGAWFDYWSQGTLVT
VL: DIVMTQTPLSLPVSLGDQASISCRSSQSLVHSNGNTYLHWYLQKPGQSPKLLIYKVSNRFSGVPDRFSVSGSGTDFTLKISRVEAEDLGVYFCSQSTHVPPTFGGGTKLEIK
notes: also called 单克隆抗体10G12
For B1, which “抗体对腺病毒感染的抑制率 (EC50, CPE on A549 cells)” value [1] is on record?
Its value is 0.2 µg/mL.

Does B1 bind (合成的口蹄疫病毒多肽抗原)?
Result: no binding (tested: 300μg/ml)
